The results in this text go back to article PMC13062060, “Calcium activation mechanism of a noncanonical aromatic L-amino acid decarboxylase from psilocybin mushroom Psilocybe cubensis” (Communications Biology, 2026).

The subject of this data set is N[C@@H](Cc1ccccc1)C(=O)O. As to the kind of experiment: LC-MS of phenylethylamine formed, Michaelis-Menten fit. The class given is biochemical, Psilocybe cubensis. Particulars: 30 mM calcium acetate (activating), 50 mM Tris pH 8.0, room temperature, brackets 95% CI, also measured in 30 mM NaCl. From the text:
LC-MS of phenylethylamine formed, Michaelis-Menten fit on PcncAAAD (noncanonical aromatic L-amino acid decarboxylase)

One may read the kcat as the number of substrate molecules converted per active site and unit of time at saturation. For the substance “PcncAAAD (noncanonical aromatic L-amino acid decarboxylase) (Psilocybe cubensis)”, the Km is 88 [49–154] µM and the kcat turned out to be 0.51 s⁻¹.
Taken in the same sequence, the figures for “PcncAAAD (noncanonical aromatic L-amino acid decarboxylase) (Psilocybe cubensis; D825A/D931A/D971A/D973A/E637A/E638A/E824A/E972A)” were 586 [359–979] µM and 0.044 s⁻¹.
For “PcncAAAD (noncanonical aromatic L-amino acid decarboxylase) (Psilocybe cubensis; D825A/D931A/E824A)” the same measures were 174 [105–287] µM and 0.41 s⁻¹.
Regarding “PcncAAAD (noncanonical aromatic L-amino acid decarboxylase) (Psilocybe cubensis; D971A/D973A/E637A/E638A/E972A)”, the Km was 513 [319–839] µM and the kcat amounted to 0.073 s⁻¹.
